In paper doi:10.1101/2025.03.29.646087:

Target: SARS-CoV-2 nsp15 with H234A mutation and a N-terminal Strep-Tag II (SARS-CoV-2)
Assay: cryo-EM structure

Q: How did the stoichiometry N turn out when “SARS-CoV-2 nsp15 with H234A mutation and a N-terminal Strep-Tag II (enzyme)” was run?
A: Its stoichiometry N is 6.
